Tests used:
Kv2.1 = target: T1, Kv2.1 (Homo sapiens, UniProt Q14721); conditions: cited from earlier work; for IC50: Table 5, read-out: IC50, channel Kv2.1
T1 sequence (Q14721 1-858): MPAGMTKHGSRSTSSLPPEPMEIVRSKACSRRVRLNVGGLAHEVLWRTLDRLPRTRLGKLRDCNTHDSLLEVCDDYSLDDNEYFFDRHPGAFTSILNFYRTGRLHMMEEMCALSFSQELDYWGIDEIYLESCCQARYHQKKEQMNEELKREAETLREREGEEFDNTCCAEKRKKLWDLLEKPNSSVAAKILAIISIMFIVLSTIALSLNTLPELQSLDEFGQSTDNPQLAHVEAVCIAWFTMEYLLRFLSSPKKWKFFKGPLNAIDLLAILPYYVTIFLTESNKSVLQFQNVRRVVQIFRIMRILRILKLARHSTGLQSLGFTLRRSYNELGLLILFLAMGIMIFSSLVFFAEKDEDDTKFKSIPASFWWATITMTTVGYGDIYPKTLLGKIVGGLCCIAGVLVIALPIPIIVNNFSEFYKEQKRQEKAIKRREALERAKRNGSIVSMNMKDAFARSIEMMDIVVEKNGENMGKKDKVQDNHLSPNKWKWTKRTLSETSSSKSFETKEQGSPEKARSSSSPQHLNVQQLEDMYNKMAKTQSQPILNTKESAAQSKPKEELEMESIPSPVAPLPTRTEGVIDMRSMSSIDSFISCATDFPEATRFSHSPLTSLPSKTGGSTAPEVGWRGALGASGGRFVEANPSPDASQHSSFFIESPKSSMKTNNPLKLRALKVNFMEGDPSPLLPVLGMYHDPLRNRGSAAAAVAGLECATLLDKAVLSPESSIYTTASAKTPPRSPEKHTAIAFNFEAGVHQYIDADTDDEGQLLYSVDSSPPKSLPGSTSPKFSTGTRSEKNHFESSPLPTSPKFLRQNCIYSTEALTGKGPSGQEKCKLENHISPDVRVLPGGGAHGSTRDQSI

Kv1.2 = Kv1.2 (Homo sapiens, UniProt P16389); conditions: Table 5; result in words; cited from earlier work
Kv2.1 R300S (R2S) = experiment: Alpha currents (Iα) of Kv2.1 R2S in Xenopus oocytes, two electrode voltage-clamp; format: cell-based, human; conditions: 1 nM AgTx2, R2S
Source text: The coding cDNAs of KV2.1 “wild-type” (hereinafter WT) base construct (hKv2.1-m7-c3 is human Kv2.1, residues 1-858, mutated to confer AgTx2 sensitivity and to remove extracellular cysteine residues) was synthesized (Entelchon GmbH) and cloned into the high expression vector pBSTA.
Mutations Kv2.1 R294N (hereinafter R0N), Kv2.1 R300S (hereinafter R2S), Kv2.1 R294C/R300S (hereinafter R0C/R2S), Kv2.1 R293S/R294S (hereinafter R-1S/R0S), Kv2.1 R293S/R294C (hereinafter R-1S/R0C), Kv2.1 R293S/R294S/R300S (hereinafter R-1S/R0S/R2S), Kv2.1 R293S/R294C/R300S (hereinafter R-1S/R0C/R2S) were introduced using the QuikChange® Lightning Site-Directed Mutagenesis Kit (Stratagene) with mutagenic primers according to the manufacturer's instructions. All constructs were checked by restriction site mapping and sequencing.
Transcripted cRNA was produced using the mMessage mMachine kit (Ambion Inc.). Two to four days past injection of cRNA into stage V-VI Xenopus oocytes (NASCO) potassium currents through the alpha pore (Iα) were recorded with the two electrode voltage-clamp technique making use of a TURBO TEC-05× amplifier (npi electronic GmbH). Currents were filtered at 10 kHz and sampled at 20 kHz. The bath solution contained (in mM): NaCl 96, KCl 2, CaCl2 1, MgCl2 1 and HEPES 5 (pH 7.5). […]

Shaker = Shaker (Drosophila melanogaster, UniProt P08510, DUP563-563/L584V/Q583H); conditions: Table 5; read-out: IC50, channel Shaker; cited from earlier work
Chain of Shaker (P08510 with tags, fused parts or gaps DUP563-563/Q583H/L584V): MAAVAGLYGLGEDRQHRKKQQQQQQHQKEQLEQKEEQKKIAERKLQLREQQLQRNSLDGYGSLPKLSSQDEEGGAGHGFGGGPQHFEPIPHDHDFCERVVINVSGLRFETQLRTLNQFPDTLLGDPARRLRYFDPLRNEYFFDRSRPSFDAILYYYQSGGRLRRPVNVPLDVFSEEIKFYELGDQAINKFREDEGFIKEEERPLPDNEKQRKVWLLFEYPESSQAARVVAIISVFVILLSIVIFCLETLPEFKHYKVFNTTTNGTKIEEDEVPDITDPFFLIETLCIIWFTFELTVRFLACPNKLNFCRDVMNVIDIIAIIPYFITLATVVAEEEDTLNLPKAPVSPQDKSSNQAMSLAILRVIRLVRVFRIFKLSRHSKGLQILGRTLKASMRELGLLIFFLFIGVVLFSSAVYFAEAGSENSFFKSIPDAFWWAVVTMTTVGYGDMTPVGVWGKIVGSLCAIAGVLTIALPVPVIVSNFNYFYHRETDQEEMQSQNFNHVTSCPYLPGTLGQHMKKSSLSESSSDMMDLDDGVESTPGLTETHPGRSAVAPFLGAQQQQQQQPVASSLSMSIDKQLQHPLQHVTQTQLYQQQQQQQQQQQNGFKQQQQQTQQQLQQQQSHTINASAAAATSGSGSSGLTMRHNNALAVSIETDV

Chain of Kv1.2 (P16389 whole entry): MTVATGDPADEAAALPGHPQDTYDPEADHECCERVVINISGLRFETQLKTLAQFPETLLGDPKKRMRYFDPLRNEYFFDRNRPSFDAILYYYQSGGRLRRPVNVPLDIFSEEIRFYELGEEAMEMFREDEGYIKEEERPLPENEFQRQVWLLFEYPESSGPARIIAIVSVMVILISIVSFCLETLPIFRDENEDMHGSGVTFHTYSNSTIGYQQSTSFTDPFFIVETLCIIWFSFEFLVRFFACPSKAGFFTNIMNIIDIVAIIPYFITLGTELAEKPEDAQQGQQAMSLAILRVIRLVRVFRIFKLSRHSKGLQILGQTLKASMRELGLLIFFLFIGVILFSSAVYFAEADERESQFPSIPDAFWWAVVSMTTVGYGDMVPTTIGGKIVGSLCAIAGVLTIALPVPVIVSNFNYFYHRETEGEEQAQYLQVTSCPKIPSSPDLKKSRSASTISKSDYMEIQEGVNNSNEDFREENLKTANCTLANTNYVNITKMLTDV

Question: Which results are given for “Guangxitoxin (EGECGGFWWKCGSGKPACCPKYVCSPKWGLCNFPMP) [GxTx-1E]”?
Answer: IC50 (Kv2.1): 2 nM; IC50, channel Kv1.2 (Kv1.2): No effect

Question: With “Agitotoxin-2 (GVPINVSCTGSPQCIKPCKDAGMRFGKCMNRKCHCTPK) [AgTx2]” as the substance, how does the IC50 (Kv2.1) read?
Answer: Its IC50 is over 2000 nM.

Question: And the “Sensitivity of Kv2.1 to the scorpion toxin” value (Kv2.1; text b541)?
Answer: Its value is “insensitive”.

Question: And the “Mean inhibition of the maximal outward current at +60 mV” value (Kv2.1 R300S (R2S))?
Answer: Its value is 67.8±2.8%.

Question: What about the IC50 (Shaker) of the same substance?
Answer: Its IC50 is 0.64 nM.
